From the supplement of paper PMC5998384

Columns and labels:
HeLa Kyoto [1] = test: melting temperature (median over replicates), in situ; higher = more thermally stable
HeLa Kyoto [2] = test: solubility change mitosis vs G1/S (difference of NP-40 vs SDS log2 ratios) (log2 ratio difference); higher = more soluble in mitosis
HeLa Kyoto [3] = test: solubility in G1/S (NP-40 vs SDS abundance) (log2 ratio); higher = more soluble; conditions: cell cycle stage: G1/S
HeLa Kyoto [4] = test: thermal stability score vs G1/S (z-score of summed log2 fold changes over temperatures); higher = more thermally stable than in G1/S
[5] = cell cycle stage: early G1 (4.5 h after nocodazole release)
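Throughout, for melting temperature (median over replicates), in situ: HeLa Kyoto cells synchronized by double thymidine or nocodazole block, proteins quantified by TMT10plex mass spectrometry, three independent biological replicates.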
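Throughout, for solubility change mitosis vs G1/S (difference of NP-40 vs SDS log2 ratios): synchronized HeLa Kyoto cells (double thymidine block for G1/S, nocodazole release for mitosis), protein amounts in NP-40 versus SDS lysates quantified by mass spectrometry, three biological replicates.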
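Throughout, for solubility in G1/S (NP-40 vs SDS abundance): HeLa Kyoto cells arrested at G1/S by double thymidine block, proteins quantified by TMT10plex mass spectrometry in mild NP-40 versus SDS extracts, three biological replicates.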
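Throughout, for thermal stability score vs G1/S (z-score of summed log2 fold changes over temperatures): synchronized HeLa Kyoto cells, proteins quantified by TMT10plex mass spectrometry, three biological replicates, mitosis taken 0.5 h after nocodazole release, G1/S directly after double thymidine block.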

Chain of IRF2BP1 (chain, as listed by the source): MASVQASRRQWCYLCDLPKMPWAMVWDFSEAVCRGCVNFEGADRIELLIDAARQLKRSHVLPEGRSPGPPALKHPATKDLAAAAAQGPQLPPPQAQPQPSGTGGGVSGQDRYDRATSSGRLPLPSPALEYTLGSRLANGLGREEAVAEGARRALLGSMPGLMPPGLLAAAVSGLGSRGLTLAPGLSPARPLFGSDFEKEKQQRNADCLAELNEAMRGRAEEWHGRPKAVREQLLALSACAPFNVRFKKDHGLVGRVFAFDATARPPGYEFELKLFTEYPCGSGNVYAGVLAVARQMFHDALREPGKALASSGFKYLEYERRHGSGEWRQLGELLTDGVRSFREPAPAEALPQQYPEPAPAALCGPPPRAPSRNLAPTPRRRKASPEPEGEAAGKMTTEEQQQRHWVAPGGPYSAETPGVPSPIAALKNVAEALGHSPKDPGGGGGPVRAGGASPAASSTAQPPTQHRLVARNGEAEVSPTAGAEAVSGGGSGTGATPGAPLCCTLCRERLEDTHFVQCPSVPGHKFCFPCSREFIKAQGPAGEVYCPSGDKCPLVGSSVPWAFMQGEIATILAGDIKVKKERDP

Row | Substance | melting temperature (HeLa Kyoto [1]; cell cycle stage: G1/S) | melting temperature (HeLa Kyoto [1]; cell cycle stage: mitosis) | solubility change mitosis (log2) (HeLa Kyoto [2]) | solubility in G1/S (log2) (HeLa Kyoto [3]) | thermal stability score (HeLa Kyoto [4]; [5]) | thermal stability score (HeLa Kyoto [4]; cell cycle stage: mitosis)
1 | MSLLQSALDFLAGPGSLGGASGRDQSDFVGQTVELGELRLRVRRVLAEGGFAFVYEAQDVGSGREYALKRLLSNEEEKNRAIIQEVCFMKKLSGHPNIVQFCSAASIGKEESDTGQAEFLLLTELCKGQLVEFLKKMESRGPLSCDTVLKIFYQTCRAVQHMHRQKPPIIHRDLKVENLLLSNQGTIKLCDFGSATTISHYPDYSWSAQRRALVEEEITRNTTPMYRTPEIIDLYSNFPIGEKQDIWALGCILYLLCFRQHPFEDGAKLRIVNGKYSIPPHDTQYTVFHSLIRAMLQVNPEERLSIAEVVHQLQEIAAARNVNPKSPITELLEQNGGYGSATLSRGPPPPVGPAGSGYSGGLALAEYDQPYGGFLDILRGGTERLFTNLKDTSSKVIQSVANYAKGDLDISYITSRIAVMSFPAEGVESALKNNIEDVRLFLDSKHPGHYAVYNLSPRTYRPSRFHNRVSECGWAARRAPHLHTLYNICRNMHAWLRQDHKNVCVVHCMDGRAASAVAVCSFLCFCRLFSTAEAAVYMFSMKRCPPGIWPSHKRYIEYMCDMVAEEPITPHSKPILVRAVVMTPVPLFSKQRSGCRPFCEVYVGDERVASTSQEYDKMRDFKIEDGKAVIPLGVTVQGDVLIVIYHARSTLGGRLQAKMASMKMFQIQFHTGFVPRNATTVKFAKYDLDACDIQEKYPDLFQVNLEVEVEPRDRPSREAPPWENSSMRGLNPKILFSSREEQQDILSKFGKPELPRQPGSTAQYDAGAGSPEAEPTDSDSPPSSSADASRFLHTLDWQEEKEAETGAENASSKESESALMEDRDESEVSDEGGSPISSEGQEPRADPEPPGLAAGLVQQDLVFEVETPAVLPEPVPQEDGVDLLGLHSEVGAGPAVPPQACKAPSSNTDLLSCLLGPPEAASQGPPEDLLSEDPLLLASPAPPLSVQSTPRGGPPAAADPFGPLLPSSGNNSQPCSNPDLFGEFLNSDSVTVPPSFPSAHSAPPPSCSADFLHLGDLPGEPSKMTASSSNPDLLGGWAAWTETAASAVAPTPATEGPLFSPGGQPAPCGSQASWTKSQNPDPFADLGDLSSGLQGSPAGFPPGGFIPKTATTPKGSSSWQTSRPPAQGASWPPQAKPPPKACTQPRPNYASNFSVIGAREERGVRAPSFAQKPKVSENDFEDLLSNQGFSSRSDKKGPKTIAEMRKQDLAKDTDPLKLKLLDWIEGKERNIRALLSTLHTVLWDGESRWTPVGMADLVAPEQVKKHYRRAVLAVHPDKAAGQPYEQHAKMIFMELNDAWSEFENQGSRPLF | 48.6 °C | 48.9 °C | -0.151 | -0.0682 | 0.76 | 1.62
2 | KDM5C | 49.3 °C | 50 °C | -0.075 | -0.0935 | 0.484 | 0.572
3 | MSSKKNRKRLNQSAENGSSLPSAASSCAEARAPSAGSDFAATSGTLTVTNLLEKVDDKIPKTFQNSLIHLGLNTMKSANICIGRPVLLTSLNGKQEVYTAWPMAGFPGGKVGLSEMAQKNVGVRPGDAIQVQPLVGAVLQAEEMDVALSDKDMEINEEELTGCILRKLDGKIVLPGNFLYCTFYGRPYKLQVLRVKGADGMILGGPQSDSDTDAQRMAFEQSSMETSSLELSLQLSQLDLEDTQIPTSRSTPYKPIDDRITNKASDVLLDVTQSPGDGSGLMLEEVTGLKCNFESAREGNEQLTEEERLLKFSIGAKCNTDTFYFISSTTRVNFTEIDKNSKEQDNQFKVTYDMIGGLSSQLKAIREIIELPLKQPELFKSYGIPAPRGVLLYGPPGTGKTMIARAVANEVGAYVSVINGPEIISKFYGETEAKLRQIFAEATLRHPSIIFIDELDALCPKREGAQNEVEKRVVASLLTLMDGIGSEVSEGQVLVLGATNRPHALDAALRRPGRFDKEIEIGVPNAQDRLDILQKLLRRVPHLLTEAELLQLANSAHGYVGADLKVLCNEAGLCALRRILKKQPNLPDVKVAGLVKITLKDFLQAMNDIRPSAMREIAIDVPNVSWSDIGGLESIKLKLEQAVEWPLKHPESFIRMGIQPPKGVLLYGPPGCSKTMIAKALANESGLNFLAIKGPELMNKYVGESERAVRETFRKARAVAPSIIFFDELDALAVERGSSLGAGNVADRVLAQLLTEMDGIEQLKDVTILAATNRPDRIDKALMRPGRIDRIIYVPLPDAATRREIFKLQFHSMPVSNEVDLDELILQTDAYSGAEIVAVCREAALLALEEDIQANLIMKRHFTQALSTVTPRIPESLRRFYEDYQEKSGLHTL [SPATA5] | 53 °C | 51.7 °C | 0.184 | -0.296 | 1.78 | -0.413
4 | MMPMFLTVYLSNNEQHFTEVPVTPETICRDVVDLCKEPGESDCHLAEVWCGSERPVADNERMFDVLQRFGSQRNEVRFFLRHERPPGRDIVSGPRSQDPSLKRNGVKVPGEYRRKENGVNSPRMDLTLAELQEMASRQQQQIEAQQQLLATKEQRLKFLKQQDQRQQQQVAEQEKLKRLKEIAENQEAKLKKVRALKGHVEQKRLSNGKLVEEIEQMNNLFQQKQRELVLAVSKVEELTRQLEMLKNGRIDSHHDNQSAVAELDRLYKELQLRNKLNQEQNAKLQQQRECLNKRNSEVAVMDKRVNELRDRLWKKKAALQQKENLPVSSDGNLPQQAASAPSRVAAVGPYIQSSTMPRMPSRPELLVKPALPDGSLVIQASEGPMKIQTLPNMRSGAASQTKGSKIHPVGPDWSPSNADLFPSQGSASVPQSTGNALDQVDDGEVPLREKEKKVRPFSMFDAVDQSNAPPSFGTLRKNQSSEDILRDAQVANKNVAKVPPPVPTKPKQINLPYFGQTNQPPSDIKPDGSSQQLSTVVPSMGTKPKPAGQQPRVLLSPSIPSVGQDQTLSPGSKQESPPAAAVRPFTPQPSKDTLLPPFRKPQTVAASSIYSMYTQQQAPGKNFQQAVQSALTKTHTRGPHFSSVYGKPVIAAAQNQQQHPENIYSNSQGKPGSPEPETEPVSSVQENHENERIPRPLSPTKLLPFLSNPYRNQSDADLEALRKKLSNAPRPLKKRSSITEPEGPNGPNIQKLLYQRTTIAAMETISVPSYPSKSASVTASSESPVEIQNPYLHVEPEKEVVSLVPESLSPEDVGNASTENSDMPAPSPGLDYEPEGVPDNSPNLQNNPEEPNPEAPHVLDVYLEEYPPYPPPPYPSGEPEGPGEDSVSMRPPEITGQVSLPPGKRTNLRKTGSERIAHGMRVKFNPLALLLDSSLEGEFDLVQRIIYEVDDPSLPNDEGITALHNAVCAGHTEIVKFLVQFGVNVNAADSDGWTPLHCAASCNNVQVCKFLVESGAAVFAMTYSDMQTAADKCEEMEEGYTQCSQFLYGVQEKMGIMNKGVIYALWDYEPQNDDELPMKEGDCMTIIHREDEDEIEWWWARLNDKEGYVPRNLLGLYPRIKPRQRSLA [TP53BP2] | 48.9 °C | 48.5 °C | -0.063 | 0.0669 | 0.713 | 1.28
5 | IRF2BP1 | 46.9 °C | 49.5 °C | -0.0595 | 0.316 | 1.4 | 3.22
6 | UTRN | 49 °C | 48.5 °C | -0.109 | 0.0106 | 0.795 | 1.84
7 | MRKPDSKIVLLGDMNVGKTSLLQRYMERRFPDTVSTVGGAFYLKQWRSYNISIWDTAGREQFHGLGSMYCRGAAAIILTYDVNHRQSLVELEDRFLGLTDTASKDCLFAIVGNKVDLTEEGALAGQEKEECSPNMDAGDRVSPRAPKQVQLEDAVALYKKILKYKMLDEQDVPAAEQMCFETSAKTGYNVDLLFETLFDLVVPMILQQRAERPSHTVDISSHKPPKRTRSGCCA [RAB20] | 54.4 °C | 53.8 °C | -0.187 | 0.0752 | 3.91 | 1.44
8 | CTBP2 | 55.3 °C | 53.4 °C | -0.0285 | 0.144 | -2.44 | -6.63
9 | TRPM7 | 51.6 °C | 51.4 °C | -0.0119 | -0.312 | 0.936 | 0.742
10 | MKMTVDFEECLKDSPRFRAALEEVEGDVAELELKLDKLVKLCIAMIDTGKAFCVANKQFMNGIRDLAQYSSNDAVVETSLTKFSDSLQEMINFHTILFDQTQRSIKAQLQNFVKEDLRKFKDAKKQFEKVSEEKENALVKNAQVQRNKQHEVEEATNILTATRKCFRHIALDYVLQINVLQSKRRSEILKSMLSFMYAHLAFFHQGYDLFSELGPYMKDLGAQLDRLVVDAAKEKREMEQKHSTIQQKDFSSDDSKLEYNVDAANGIVMEGYLFKRASNAFKTWNRRWFSIQNNQLVYQKKFKDNPTVVVEDLRLCTVKHCEDIERRFCFEVVSPTKSCMLQADSEKLRQAWIKAVQTSIATAYREKGDESEKLDKKSSPSTGSLDSGNESKEKLLKGESALQRVQCIPGNASCCDCGLADPRWASINLGITLCIECSGIHRSLGVHFSKVRSLTLDTWEPELLKLMCELGNDVINRVYEANVEKMGIKKPQPGQRQEKEAYIRAKYVERKFVDKYSISLSPPEQQKKFVSKSSEEKRLSISKFGPGDQVRASAQSSVRSNDSGIQQSSDDGRESLPSTVSANSLYEPEGERQDSSMFLDSKHLNPGLQLYRASYEKNLPKMAEALAHGADVNWANSEENKATPLIQAVLGGSLVTCEFLLQNGANVNQRDVQGRGPLHHATVLGHTGQVCLFLKRGANQHATDEEGKDPLSIAVEAANADIVTLLRLARMNEEMRESEGLYGQPGDETYQDIFRDFSQMASNNPEKLNRFQQDSQKF [ACAP2] | 49.8 °C | – | -0.215 | -0.0242 | 0.348 | 0.369
11 | MMLRGNLKQVRIEKNPARLRALESAVGESEPAAAAAMALALAGEPAPPAPAPPEDHPDEEMGFTIDIKSFLKPGEKTYTQRCRLFVGNLPTDITEEDFKRLFERYGEPSEVFINRDRGFGFIRLESRTLAEIAKAELDGTILKSRPLRIRFATHGAALTVKNLSPVVSNELLEQAFSQFGPVEKAVVVVDDRGRATGKGFVEFAAKPPARKALERCGDGAFLLTTTPRPVIVEPMEQFDDEDGLPEKLMQKTQQYHKEREQPPRFAQPGTFEFEYASRWKALDEMEKQQREQVDRNIREAKEKLEAEMEAARHEHQLMLMRQDLMRRQEELRRLEELRNQELQKRKQIQLRHEEEHRRREEEMIRHREQEELRRQQEGFKPNYMENREQEMRMGDMGPRGAINMGDAFSPAPAGNQGPPPMMGMNMNNRATIPGPPMGPGPAMGPEGAANMGTPMMPDNGAVHNDRFPQGPPSQMGSPMGSRTGSETPQAPMSGVGPVSGGPGGFGRGSQGGNFEGPNKRRRY [PSPC1] | 49.1 °C | 48.7 °C | 0.177 | 0.205 | 1 | 1.79
12 | MGIQTSPVLLASLGVGLVTLLGLAVGSYLVRRSRRPQVTLLDPNEKYLLRLLDKTTVSHNTKRFRFALPTAHHTLGLPVGKHIYLSTRIDGSLVIRPYTPVTSDEDQGYVDLVIKVYLKGVHPKFPEGGKMSQYLDSLKVGDVVEFRGPSGLLTYTGKGHFNIQPNKKSPPEPRVAKKLGMIAGGTGITPMLQLIRAILKVPEDPTQCFLLFANQTEKDIILREDLEELQARYPNRFKLWFTLDHPPKDWAYSKGFVTADMIREHLPAPGDDVLVLLCGPPPMVQLACHPNLDKLGYSQKMRFTY [CYB5R1] | 54.1 °C | 55.3 °C | -0.041 | 0.339 | -0.825 | -0.661
13 | GOLGA3 | 51.8 °C | 50.4 °C | -0.048 | 0.313 | 0.197 | -1.4
14 | MSGPRPVVLSGPSGAGKSTLLKRLLQEHSGIFGFSVSHTTRNPRPGEENGKDYYFVTREVMQRDIAAGDFIEHAEFSGNLYGTSKVAVQAVQAMNRICVLDVDLQGVRNIKATDLRPIYISVQPPSLHVLEQRLRQRNTETEESLVKRLAAAQADMESSKEPGLFDVVIINDSLDQAYAELKEALSEEIKKAQRTGA [GUK1] | 48.9 °C | 50.2 °C | 0.047 | 0.604 | -0.1 | -0.804
15 | MAAAEAGGDDARCVRLSAERAQALLADVDTLLFDCDGVLWRGETAVPGAPEALRALRARGKRLGFITNNSSKTRAAYAEKLRRLGFGGPAGPGASLEVFGTAYCTALYLRQRLAGAPAPKAYVLGSPALAAELEAVGVASVGVGPEPLQGEGPGDWLHAPLEPDVRAVVVGFDPHFSYMKLTKALRYLQQPGCLLVGTNMDNRLPLENGRFIAGTGCLVRAVEMAAQRQADIIGKPSRFIFDCVSQEYGINPERTVMVGDRLDTDILLGATCGLKTILTLTGVSTLGDVKNNQESDCVSKKKMVPDFYVDSIADLLPALQG [PGP] | 56.8 °C | 58.2 °C | -0.00434 | 0.536 | -0.684 | -1.2
